B1: Renilla luciferase-Smad3 wild type, co-expressed with constitutively active Alk5 (phosphorylated Smad3) (natural protein, UniProt P84022 1-425, looked up)
chain: MSSILPFTPPIVKRLLGWKKGEQNGQEEKWCEKAVKSLVKKLKKTGQLDELEKAITTQNVNTKCITIPRSLDGRLQVSHRKGLPHVIYCRLWRWPDLHSHHELRAMELCEFAFNMKKDEVCVNPYHYQRVETPVLPPVLVPRHTEIPAEFPPLDDYSHSIPENTNFPAGIEPQSNIPETPPPGYLSEDGETSDHQMNHSMDAGSPNLSPNPMSPAHNNLDLQPVTYCEPAFWCSISYYELNQRVGETFHASQPSMTVDGFTDPSNSERFCLGLLSNVNRNAAVELTRRHIGRGVRLYYIGGEVFAECLSDSAIFVQSPNCNQRYGWHPATVCKIPPGCNLKIFNNQEFAALLAQSVNQGFEAVYQLTRMCTIRMSFVKGWGAEYRRQTVTSTPCWIELHLNGPLQWLDKVLTQMGSPSIRCSSVS
modifications: phosphorylated by the co-expressed activated Alk5 kinase (sites not given)
notes: Smad3; plasmid pCMV5-hRLuc-Smad3 (from J. Wrana); also called Smad3 WT+Alk5; Renilla-Smad3; source: HEK-293, transfected together with constitutively active Alk5, in lysate
B2: Renilla luciferase-Smad3 wild type, without Alk5 (not phosphorylated) (natural protein, UniProt P84022 1-425, looked up)
chain: B1 chain
notes: Smad3; also called Smad3 WT, No Alk5; source: HEK-293, transfected without Alk5, in lysate
B3: Renilla luciferase-Smad3 QPSMT/SE mutant (residues 252–256 and 266–267 changed to the Smad1 equivalents STSVL/NKN) (natural protein, UniProt P84022 1-425, looked up)
chain: MSSILPFTPPIVKRLLGWKKGEQNGQEEKWCEKAVKSLVKKLKKTGQLDELEKAITTQNVNTKCITIPRSLDGRLQVSHRKGLPHVIYCRLWRWPDLHSHHELRAMELCEFAFNMKKDEVCVNPYHYQRVETPVLPPVLVPRHTEIPAEFPPLDDYSHSIPENTNFPAGIEPQSNIPETPPPGYLSEDGETSDHQMNHSMDAGSPNLSPNPMSPAHNNLDLQPVTYCEPAFWCSISYYELNQRVGETFHASSTSVLVDGFTDPSNNKNRFCLGLLSNVNRNAAVELTRRHIGRGVRLYYIGGEVFAECLSDSAIFVQSPNCNQRYGWHPATVCKIPPGCNLKIFNNQEFAALLAQSVNQGFEAVYQLTRMCTIRMSFVKGWGAEYRRQTVTSTPCWIELHLNGPLQWLDKVLTQMGSPSIRCSSVS
notes: Smad3 with two stretches replaced by those of Smad1; source plasmid pcDNA3-Flag-Smad3(STSVL/NKN) from K. Miyazono; assayed as Renilla fusion; also called Smad3(STSVL/NKN); Smad1/3 chimeric protein; source: HEK-293, transfected together with constitutively active Alk5, in lysate

Tests used:
Conditions in all cases: partners not purified
[1] = target: T1, Smurf2 Smad-binding domain (amino acids 252–330) on the Flag-thioredoxin scaffold (UniProt Q9HAU4 252-330); assay: co-IP; LUMIER: Renilla luciferase-Smad3 and Flag-tagged partner co-expressed with constitutively active Alk5 in HEK-293; Flag protein captured from cleared lysate (TNE: 10 mM Tris-HCl pH 7.8, 150 mM NaCl, 1 mM EDTA, 1% Igepal CA-630) on anti-Flag 96-well plates, 2 h at 4 °C; co-precipitated Renilla luciferase activity, TrxGA background subtracted, percent of wild-type Smad3
T1 construct: Smurf2, amino acids 252–330; also called Smurf2 aa252–330; TrxSmurf2; source: HEK-293, transfected, in lysate

[2] = target: T2, Ski Smad-binding domain (amino acids 2–56) on the 3xFlag-thioredoxin scaffold (UniProt P12755 2-56); assay: as above
T2 construct: Ski, amino acids 2–56; cloned into the unique RsrII site of pCI-3xFLAG-Trx; also called Ski aa2–56; TrxSki; source: HEK-293, transfected, in lysate
T2 sequence (looked up): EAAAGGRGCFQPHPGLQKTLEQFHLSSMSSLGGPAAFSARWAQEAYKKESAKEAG

[3] = target: T3, SARA Smad-binding domain (amino acids 665–721) on the 3xFlag-thioredoxin scaffold (UniProt O95405 767-823); assay: as above
T3 construct: SARA, amino acids 665–721; cloned into the unique RsrII site of pCI-3xFLAG-Trx; also called SARA aa665–721; TrxSARA; source: HEK-293, transfected, in lysate
T3 sequence (looked up): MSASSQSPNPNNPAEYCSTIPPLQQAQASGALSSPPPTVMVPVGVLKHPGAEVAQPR

[4] = target: T3, SARA Smad-binding domain (amino acids …); assay: co-IP; LUMIER as a1 but without co-expression of the activated Alk5 kinase (Smad3 not phosphorylated); percent of phosphorylated wild-type Smad3
[5] = target: T4, Flag-Smad4, full length (UniProt Q13485 1-552); assay: co-IP; LUMIER: Renilla luciferase-Smad3 and Flag-tagged partner co-expressed with constitutively active Alk5 in HEK-293; Flag protein captured from cleared lysate (TNE: 10 mM Tris-HCl pH 7.8, 150 mM NaCl, 1 mM EDTA, 1% Igepal CA-630) on anti-Flag 96-well plates, 2 h at 4 °C; co-precipitated Renilla luciferase activity, TrxGA background subtracted, percent of wild-type Smad3
T4 construct: Smad4; plasmid pCMV5-Flag-Smad4 (from J. Massagué); also called Smad4 FL; source: HEK-293, transfected, in lysate
T4 sequence (looked up): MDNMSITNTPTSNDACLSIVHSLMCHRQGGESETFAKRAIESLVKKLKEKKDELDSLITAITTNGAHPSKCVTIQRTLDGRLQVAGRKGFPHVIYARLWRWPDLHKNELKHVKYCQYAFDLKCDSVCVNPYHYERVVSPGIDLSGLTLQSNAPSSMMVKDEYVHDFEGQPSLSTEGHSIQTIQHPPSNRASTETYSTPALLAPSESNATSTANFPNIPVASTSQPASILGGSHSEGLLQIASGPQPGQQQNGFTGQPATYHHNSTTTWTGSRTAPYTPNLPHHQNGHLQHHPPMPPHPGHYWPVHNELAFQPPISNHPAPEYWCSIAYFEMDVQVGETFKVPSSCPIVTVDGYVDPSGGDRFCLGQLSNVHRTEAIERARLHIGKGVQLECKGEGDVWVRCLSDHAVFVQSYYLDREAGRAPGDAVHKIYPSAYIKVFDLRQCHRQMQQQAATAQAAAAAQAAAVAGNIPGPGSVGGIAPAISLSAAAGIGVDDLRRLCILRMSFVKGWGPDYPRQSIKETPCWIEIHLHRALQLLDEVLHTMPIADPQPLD

T1 sequence (Q9HAU4 252-330): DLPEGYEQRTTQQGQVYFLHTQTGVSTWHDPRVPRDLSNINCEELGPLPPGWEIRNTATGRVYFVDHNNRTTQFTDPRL

Binder | percent binding relative to wild-type Smad3 [1] [%] | percent binding relative to wild-type Smad3 [2] [%] | percent binding relative to wild-type Smad3 [3] [%] | percent binding relative to wild-type Smad3 [4] [%] | percent binding relative to wild-type Smad3 [5] [%]
B1 | 100 | 100 | 100 |  | 
B2 |  |  |  | 78 | 
B3 | 86 | 4 | 61 |  | 132

— PMC3176292, “Mutations in Protein-Binding Hot-Spots on the Hub Protein Smad3 Differentially Affect Its Protein Interactions and Smad3-Regulated Gene Expression” (PLoS ONE, 2011)
